A word on the EC50: it is the concentration at which the effect is half-maximal. High values mean a less potent agent, low ones a more potent agent.

Among the data in patent US9120851B2, “Human antibodies to human angiopoietin-like protein 4” (Regeneron Pharmaceuticals, Inc., priority 2009, dated 2015) are EC50 values, retold here.

For this assay, the target named is T1, bovine LPL (Bos taurus, UniProt P11151).
T1 sequence (P11151 29-478): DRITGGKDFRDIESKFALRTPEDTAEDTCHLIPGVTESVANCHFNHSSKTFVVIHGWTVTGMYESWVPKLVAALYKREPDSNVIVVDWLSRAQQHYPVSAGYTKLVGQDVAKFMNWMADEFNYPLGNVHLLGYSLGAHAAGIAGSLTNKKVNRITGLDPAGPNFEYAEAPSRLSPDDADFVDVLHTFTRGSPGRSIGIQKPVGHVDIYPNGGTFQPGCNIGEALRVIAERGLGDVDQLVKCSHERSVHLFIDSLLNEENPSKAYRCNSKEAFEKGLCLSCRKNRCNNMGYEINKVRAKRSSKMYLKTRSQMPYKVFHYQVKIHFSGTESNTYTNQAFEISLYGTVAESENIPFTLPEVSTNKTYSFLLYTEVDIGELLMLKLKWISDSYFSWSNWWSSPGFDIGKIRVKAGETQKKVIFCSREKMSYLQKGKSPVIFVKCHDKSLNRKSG
The experiment in a line: Dose-response of ANGPTL4 protein in the LPL assay. Format: biochemical. The following applies: full dose-response of ANGPTL4 protein, determined for each experiment. As to the method: Briefly, 2 nM bovine LPL, 0.25 μM human ApoCII (a cofactor of LPL), 2 mg/mL BSA and 1.6 mM CaCl2, were premixed in a 96-well assay plate. Either hANGPTL4-His or hANGPTL4-mFc protein was added to the Apo/LPL mixture to a final concentration of 10 nM and 2 nM, respectively. The Apo/LPL/ANGPTL4 protein mixtures were then added together with serially diluted anti-hANGPTL4 antibodies with a starting concentration of 300 nM (for inhibition of hANGPTL4-His) or 100 nM (for inhibition of hANGPTL4-mFc) and incubated at room temperature for 30 minutes (final volume 50 μl). Following the incubation, 200 μl of reconstituted lipase substrate, 1-trinitrophenyl-amino-dodecanoyl-2-pyrendecanoyl-3-0-hexadecyl-sn-glycerol (LS-A, Progen), was added to the antibody mixture and incubated at 37° C. for two hours. Fluorescence was then measured at 342 nm/400 nm (excitation/emission) using a FlexStation® 3 Microplate Reader (Molecular Devices, CA). Fluorescence is directly proportional to LPL activity. Control I: a rabbit polyclonal antibody specific for hANGPTL4 (BioVendor). […] NT: not tested. […]

B1: His-MfANGPTL4 (26-148): cynomolgus monkey ANGPTL4 N-terminal region (residues 26-148) with an N-terminal hexa-histidine tag (SEQ ID NO:488) (protein)
chain: MHHHHHHGPVQSKSPRFASWDEMNVLAHGLLQLGQGLREHAERTRSQLNALERRLSACGSACQGTEGSTALPLAPESRVDPEVLHSLQTQLKAQNSRIQQLFHKVAQQQRHLEKQHLRIQRLQSQVGLLD
For the molecule B1, a half-maximal effect (EC50) was put at 3.89 nM.
